Results on one molecule are retold here after paper PMC11464717, “Structural basis for antibiotic transport and inhibition in PepT2” (Nature Communications, 2024).

The test deals with T1, PepT2 (SLC15A2) from Rattus norvegicus (Rattus norvegicus, UniProt Q63424).
T1 construct: Proton-coupled peptide transporter PepT2 (SLC15A2), Rattus norvegicus; The extracellular domain is in the protein but was not built in the deposited models; also called rat PepT2; ratPepT2; source: HEK293F, transfected, purified (nickel NTA, TEV cleavage, SEC) in DDM:CHS; also reconstituted into POPE:POPG liposomes; not shown: GFP, C-terminal, cleaved; His tag, C-terminal, cleaved
Description: cryo-EM structure; PepT2 after size exclusion (DDM:CHS) mixed with 1 mM antibiotic (cefadroxil, amoxicillin or cloxacillin) for one hour, then 1.2 molar excess of nanobody D8, on ice for at least 30 min; PepT2 at 5-6 mg/mL. The conditions noted are these: both partners purified.

B1: nanobody (D8) (VHH)
VHH: QVQLVESGGGLVQPGGSLRLLCVASGRPFNDYDMGWFRQAPGKEREFVASISWSGRVTDYSDSMKGRCTVSRDNAKGTMFLQMSNLVPRDTAVYYCAAARRRWTFKATNTEEFYETWGQGTQVTVSS
notes: The nanobody was in the complexes solved here (PDB 9BIR, 9BIS, 9BIT, 9BIU); Its expression plasmid is deposited at Addgene; also called the nanobody
B1: the binding result is recorded as “binds”.
